# Measurements published in patent publication US20150239980A1 (NEOTOPE BOSCIENCES, published 2015).
# T1: human MCAM (melanoma cell adhesion molecule) expressed on transfected CHO cells (human, UniProt P43121 24-646)
# T1 construct: also called hMCAM; CD146
# T1 chain: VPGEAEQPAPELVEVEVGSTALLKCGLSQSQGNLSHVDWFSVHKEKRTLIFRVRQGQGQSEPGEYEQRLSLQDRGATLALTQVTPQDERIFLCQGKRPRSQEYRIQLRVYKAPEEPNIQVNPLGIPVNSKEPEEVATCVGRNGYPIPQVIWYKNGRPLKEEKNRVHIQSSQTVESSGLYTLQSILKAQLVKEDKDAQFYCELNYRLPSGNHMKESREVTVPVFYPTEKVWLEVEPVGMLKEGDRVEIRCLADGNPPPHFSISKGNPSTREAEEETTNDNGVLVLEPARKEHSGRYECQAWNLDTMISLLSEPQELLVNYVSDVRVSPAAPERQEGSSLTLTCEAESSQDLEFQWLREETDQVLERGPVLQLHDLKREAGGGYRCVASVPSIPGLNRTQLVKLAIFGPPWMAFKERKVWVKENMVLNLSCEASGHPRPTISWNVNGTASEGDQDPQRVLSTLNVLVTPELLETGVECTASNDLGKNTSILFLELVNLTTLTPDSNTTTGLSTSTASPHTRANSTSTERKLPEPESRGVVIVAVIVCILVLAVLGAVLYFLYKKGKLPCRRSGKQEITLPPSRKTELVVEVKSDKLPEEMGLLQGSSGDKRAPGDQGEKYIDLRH
# T2: recombinant hMCAM-His (human, UniProt P43121 24-559)
# T2 construct: not shown: His tag
# T2 chain: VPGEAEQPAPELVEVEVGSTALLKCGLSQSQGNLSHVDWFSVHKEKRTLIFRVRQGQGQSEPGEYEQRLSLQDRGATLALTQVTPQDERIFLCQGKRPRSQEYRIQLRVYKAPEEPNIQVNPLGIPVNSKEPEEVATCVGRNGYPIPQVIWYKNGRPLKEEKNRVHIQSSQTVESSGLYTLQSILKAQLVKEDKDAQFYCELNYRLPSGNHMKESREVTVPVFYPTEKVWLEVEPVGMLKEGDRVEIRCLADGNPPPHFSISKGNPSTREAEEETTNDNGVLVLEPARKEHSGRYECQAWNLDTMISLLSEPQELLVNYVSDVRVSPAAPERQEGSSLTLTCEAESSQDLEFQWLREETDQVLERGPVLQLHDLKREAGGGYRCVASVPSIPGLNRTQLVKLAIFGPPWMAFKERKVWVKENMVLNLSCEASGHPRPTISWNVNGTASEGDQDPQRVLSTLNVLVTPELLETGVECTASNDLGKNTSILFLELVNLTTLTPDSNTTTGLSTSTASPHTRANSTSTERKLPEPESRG
# Columns and labels:
# [1] = target: T1, human MCAM (melanoma cell adhesion …); assay: laminin/FACS on hMCAM CHO cells, competitor laminin 411; Expt#2; reference row with 1.0 is chimeric 2107
# Description: (§1) Following incubation for 30-45 minutes, the cells were washed and anti-laminin conjugated to AF650 (NovusBio) was added to detect the bound laminin. The cells were run on a flow cytometer to measure the laminin binding signal.
# [2] = target: T2, recombinant hMCAM-His; assay: ForteBio Octet Red, hMCAM-His analyte; Forte column 1; vs rodent 2107
# Description: The affinities were measured using the ForteBio Octet Red. Anti-human Fc sensors were used to capture the humanized antibodies, and several concentrations of hMCAMHis analyte were used to determine the affinity using a 1:1 fitting model.
# [3] = target: T1, human MCAM (melanoma cell adhesion …); assay: laminin/FACS on hMCAM CHO cells, competitor laminin 411; Expt#1; vs rodent 2107
# Description: as §1
# [4] = target: T2, recombinant hMCAM-His; assay: competitive ELISA on hMCAM-His, competitor biotinylated rodent or chimeric 2107; vs rodent 2107
# Description: ELISA plates were coated with recombinant hMCAM-His, and blocked with casein buffer to prevent non-specific binding. Biotinylated rodent or chimeric antibody was added at a subsaturating concentration, in the presence or absence of 3× increasing concentrations of unlabeled competitor (humanized antibody, rodent, or chimeric). After washing to remove unbound antibody, streptavidin HRP was added to allow detection of the biotinylated antibody. The ELISA was developed with TMB substrate and the OD450 was measured. The IC50 of the unlabeled competitor was determined using the GraphPad Prism5 software.
Binder,"fold over rodent (blocking, laminin/FACS) [1] [fold]",fold over rodent (Forte affinity) [2] [fold],"fold over rodent (blocking, laminin/FACS) [3] [fold]",fold over rodent (competitive ELISA) [4] [fold]
"h2107_VH1 + h2107_VL1 (antibody, human IgG1, V domains shown) VH: QVTLKESGPVLVKPTETLTLTCTVSGFSLTSNGVSWVRQPPGKALEWIAAISSGGSTYYNSAFKSRLTISRDTSKSQVVLTMTNMDPVDTATYYCARHRPFYFDYWGQGTLVTVSS VL: DIQMTQSPSSLSASVGDRVTITCKGSQNIYKSLAWFQQKPGKVPKLLIYDANSLQTGIPSRFSGSGSGTDFTLTISSLQPEDVATYYCQQYYSGYTFGGGTKVEIK",2.1,12.9,2.3,2.1
"h2107_VH1 + h2107_VL3 (antibody, human IgG1, V domains shown) VH: QVTLKESGPVLVKPTETLTLTCTVSGFSLTSNGVSWVRQPPGKALEWIAAISSGGSTYYNSAFKSRLTISRDTSKSQVVLTMTNMDPVDTATYYCARHRPFYFDYWGQGTLVTVSS VL: DIQMTQSPSSLSASVGDRVTINCKGSQNIYKSLAWFQQKPGKVPKLLIYDANSLQTGIPSRFSGSGSGTDFTLTISSLQPEDVATYYCQQYYSGYTFGGGTKVEIK",2,16.3,2.6,2.3
"h2107_VH5 + h2107_VL1 (antibody, human IgG1, V domains shown) VH: QVTLKESGPVLVKPTETLTLTCTVSGFSLTSQGVSWVRQPPGKALEWIAAISSGGSTYYNSAFKSRLTISPDTSKSQVVLTMTNMDPVDTATYYCARHRPFYFDYWGQGTLVTVSS VL: DIQMTQSPSSLSASVGDRVTITCKGSQNIYKSLAWFQQKPGKVPKLLIYDANSLQTGIPSRFSGSGSGTDFTLTISSLQPEDVATYYCQQYYSGYTFGGGTKVEIK",–,28.2,–,3.7
"h2107_VH5 + h2107_VL3 (antibody, human IgG1, V domains shown) VH: QVTLKESGPVLVKPTETLTLTCTVSGFSLTSQGVSWVRQPPGKALEWIAAISSGGSTYYNSAFKSRLTISPDTSKSQVVLTMTNMDPVDTATYYCARHRPFYFDYWGQGTLVTVSS VL: DIQMTQSPSSLSASVGDRVTINCKGSQNIYKSLAWFQQKPGKVPKLLIYDANSLQTGIPSRFSGSGSGTDFTLTISSLQPEDVATYYCQQYYSGYTFGGGTKVEIK",–,33.2,–,3.4
"h2107_VH6 + h2107_VL1 (antibody, human IgG1, V domains shown) VH: QVTLKESGPVLVKPTETLTLTCTVSGFSLTSNAVSWVRQPPGKALEWIAAISSGGSTYYNSAFKSRLTISRDTSKSQVVLTMTNMDPVDTATYYCARHRPFYFDYWGQGTLVTVSS VL: DIQMTQSPSSLSASVGDRVTITCKGSQNIYKSLAWFQQKPGKVPKLLIYDANSLQTGIPSRFSGSGSGTDFTLTISSLQPEDVATYYCQQYYSGYTFGGGTKVEIK",–,36.8,–,15.3
"h2107_VH6 + h2107_VL3 (antibody, human IgG1, V domains shown) VH: QVTLKESGPVLVKPTETLTLTCTVSGFSLTSNAVSWVRQPPGKALEWIAAISSGGSTYYNSAFKSRLTISRDTSKSQVVLTMTNMDPVDTATYYCARHRPFYFDYWGQGTLVTVSS VL: DIQMTQSPSSLSASVGDRVTINCKGSQNIYKSLAWFQQKPGKVPKLLIYDANSLQTGIPSRFSGSGSGTDFTLTISSLQPEDVATYYCQQYYSGYTFGGGTKVEIK",–,22.1,–,9.9
